Laboratory results taken from patent US20130247232A1.

Columns and labels:
[1] = molecular target: MUC5AC (NPC-1 antigen) expressed by SW480 human colorectal tumor cells (human) (UniProt P98088); test: FACS, 2 µg/ml isotype control antibody-FITC on SW480 cells
[2] = molecular target: MUC5AC (NPC-1 antigen) expressed by CFPAC-1 human pancreatic tumor cells (human) (UniProt P98088); test: flow cytometry on CFPAC-1 cells
[3] = molecular target: MUC5AC (NPC-1 antigen) expressed by SW480 human colorectal tumor cells (human) (UniProt P98088); test: flow cytometry on SW480 cells
[4] = molecular target: MUC5AC (NPC-1 antigen) expressed by LS174T human colorectal tumor cells (human) (UniProt P98088); test: FACS, 2 µg/ml isotype control antibody-FITC on LS174 cells
[5] = molecular target: MUC5AC (NPC-1 antigen) expressed by Colo-205 human colorectal tumor cells (human) (UniProt P98088); test: flow cytometry on Colo-205 cells
Chain of MUC5AC (NPC-1 antigen) expressed by Colo-205 human colorectal tumor cells (human) (P98088 other isoform, or with tags, fused parts or gaps limits assumed): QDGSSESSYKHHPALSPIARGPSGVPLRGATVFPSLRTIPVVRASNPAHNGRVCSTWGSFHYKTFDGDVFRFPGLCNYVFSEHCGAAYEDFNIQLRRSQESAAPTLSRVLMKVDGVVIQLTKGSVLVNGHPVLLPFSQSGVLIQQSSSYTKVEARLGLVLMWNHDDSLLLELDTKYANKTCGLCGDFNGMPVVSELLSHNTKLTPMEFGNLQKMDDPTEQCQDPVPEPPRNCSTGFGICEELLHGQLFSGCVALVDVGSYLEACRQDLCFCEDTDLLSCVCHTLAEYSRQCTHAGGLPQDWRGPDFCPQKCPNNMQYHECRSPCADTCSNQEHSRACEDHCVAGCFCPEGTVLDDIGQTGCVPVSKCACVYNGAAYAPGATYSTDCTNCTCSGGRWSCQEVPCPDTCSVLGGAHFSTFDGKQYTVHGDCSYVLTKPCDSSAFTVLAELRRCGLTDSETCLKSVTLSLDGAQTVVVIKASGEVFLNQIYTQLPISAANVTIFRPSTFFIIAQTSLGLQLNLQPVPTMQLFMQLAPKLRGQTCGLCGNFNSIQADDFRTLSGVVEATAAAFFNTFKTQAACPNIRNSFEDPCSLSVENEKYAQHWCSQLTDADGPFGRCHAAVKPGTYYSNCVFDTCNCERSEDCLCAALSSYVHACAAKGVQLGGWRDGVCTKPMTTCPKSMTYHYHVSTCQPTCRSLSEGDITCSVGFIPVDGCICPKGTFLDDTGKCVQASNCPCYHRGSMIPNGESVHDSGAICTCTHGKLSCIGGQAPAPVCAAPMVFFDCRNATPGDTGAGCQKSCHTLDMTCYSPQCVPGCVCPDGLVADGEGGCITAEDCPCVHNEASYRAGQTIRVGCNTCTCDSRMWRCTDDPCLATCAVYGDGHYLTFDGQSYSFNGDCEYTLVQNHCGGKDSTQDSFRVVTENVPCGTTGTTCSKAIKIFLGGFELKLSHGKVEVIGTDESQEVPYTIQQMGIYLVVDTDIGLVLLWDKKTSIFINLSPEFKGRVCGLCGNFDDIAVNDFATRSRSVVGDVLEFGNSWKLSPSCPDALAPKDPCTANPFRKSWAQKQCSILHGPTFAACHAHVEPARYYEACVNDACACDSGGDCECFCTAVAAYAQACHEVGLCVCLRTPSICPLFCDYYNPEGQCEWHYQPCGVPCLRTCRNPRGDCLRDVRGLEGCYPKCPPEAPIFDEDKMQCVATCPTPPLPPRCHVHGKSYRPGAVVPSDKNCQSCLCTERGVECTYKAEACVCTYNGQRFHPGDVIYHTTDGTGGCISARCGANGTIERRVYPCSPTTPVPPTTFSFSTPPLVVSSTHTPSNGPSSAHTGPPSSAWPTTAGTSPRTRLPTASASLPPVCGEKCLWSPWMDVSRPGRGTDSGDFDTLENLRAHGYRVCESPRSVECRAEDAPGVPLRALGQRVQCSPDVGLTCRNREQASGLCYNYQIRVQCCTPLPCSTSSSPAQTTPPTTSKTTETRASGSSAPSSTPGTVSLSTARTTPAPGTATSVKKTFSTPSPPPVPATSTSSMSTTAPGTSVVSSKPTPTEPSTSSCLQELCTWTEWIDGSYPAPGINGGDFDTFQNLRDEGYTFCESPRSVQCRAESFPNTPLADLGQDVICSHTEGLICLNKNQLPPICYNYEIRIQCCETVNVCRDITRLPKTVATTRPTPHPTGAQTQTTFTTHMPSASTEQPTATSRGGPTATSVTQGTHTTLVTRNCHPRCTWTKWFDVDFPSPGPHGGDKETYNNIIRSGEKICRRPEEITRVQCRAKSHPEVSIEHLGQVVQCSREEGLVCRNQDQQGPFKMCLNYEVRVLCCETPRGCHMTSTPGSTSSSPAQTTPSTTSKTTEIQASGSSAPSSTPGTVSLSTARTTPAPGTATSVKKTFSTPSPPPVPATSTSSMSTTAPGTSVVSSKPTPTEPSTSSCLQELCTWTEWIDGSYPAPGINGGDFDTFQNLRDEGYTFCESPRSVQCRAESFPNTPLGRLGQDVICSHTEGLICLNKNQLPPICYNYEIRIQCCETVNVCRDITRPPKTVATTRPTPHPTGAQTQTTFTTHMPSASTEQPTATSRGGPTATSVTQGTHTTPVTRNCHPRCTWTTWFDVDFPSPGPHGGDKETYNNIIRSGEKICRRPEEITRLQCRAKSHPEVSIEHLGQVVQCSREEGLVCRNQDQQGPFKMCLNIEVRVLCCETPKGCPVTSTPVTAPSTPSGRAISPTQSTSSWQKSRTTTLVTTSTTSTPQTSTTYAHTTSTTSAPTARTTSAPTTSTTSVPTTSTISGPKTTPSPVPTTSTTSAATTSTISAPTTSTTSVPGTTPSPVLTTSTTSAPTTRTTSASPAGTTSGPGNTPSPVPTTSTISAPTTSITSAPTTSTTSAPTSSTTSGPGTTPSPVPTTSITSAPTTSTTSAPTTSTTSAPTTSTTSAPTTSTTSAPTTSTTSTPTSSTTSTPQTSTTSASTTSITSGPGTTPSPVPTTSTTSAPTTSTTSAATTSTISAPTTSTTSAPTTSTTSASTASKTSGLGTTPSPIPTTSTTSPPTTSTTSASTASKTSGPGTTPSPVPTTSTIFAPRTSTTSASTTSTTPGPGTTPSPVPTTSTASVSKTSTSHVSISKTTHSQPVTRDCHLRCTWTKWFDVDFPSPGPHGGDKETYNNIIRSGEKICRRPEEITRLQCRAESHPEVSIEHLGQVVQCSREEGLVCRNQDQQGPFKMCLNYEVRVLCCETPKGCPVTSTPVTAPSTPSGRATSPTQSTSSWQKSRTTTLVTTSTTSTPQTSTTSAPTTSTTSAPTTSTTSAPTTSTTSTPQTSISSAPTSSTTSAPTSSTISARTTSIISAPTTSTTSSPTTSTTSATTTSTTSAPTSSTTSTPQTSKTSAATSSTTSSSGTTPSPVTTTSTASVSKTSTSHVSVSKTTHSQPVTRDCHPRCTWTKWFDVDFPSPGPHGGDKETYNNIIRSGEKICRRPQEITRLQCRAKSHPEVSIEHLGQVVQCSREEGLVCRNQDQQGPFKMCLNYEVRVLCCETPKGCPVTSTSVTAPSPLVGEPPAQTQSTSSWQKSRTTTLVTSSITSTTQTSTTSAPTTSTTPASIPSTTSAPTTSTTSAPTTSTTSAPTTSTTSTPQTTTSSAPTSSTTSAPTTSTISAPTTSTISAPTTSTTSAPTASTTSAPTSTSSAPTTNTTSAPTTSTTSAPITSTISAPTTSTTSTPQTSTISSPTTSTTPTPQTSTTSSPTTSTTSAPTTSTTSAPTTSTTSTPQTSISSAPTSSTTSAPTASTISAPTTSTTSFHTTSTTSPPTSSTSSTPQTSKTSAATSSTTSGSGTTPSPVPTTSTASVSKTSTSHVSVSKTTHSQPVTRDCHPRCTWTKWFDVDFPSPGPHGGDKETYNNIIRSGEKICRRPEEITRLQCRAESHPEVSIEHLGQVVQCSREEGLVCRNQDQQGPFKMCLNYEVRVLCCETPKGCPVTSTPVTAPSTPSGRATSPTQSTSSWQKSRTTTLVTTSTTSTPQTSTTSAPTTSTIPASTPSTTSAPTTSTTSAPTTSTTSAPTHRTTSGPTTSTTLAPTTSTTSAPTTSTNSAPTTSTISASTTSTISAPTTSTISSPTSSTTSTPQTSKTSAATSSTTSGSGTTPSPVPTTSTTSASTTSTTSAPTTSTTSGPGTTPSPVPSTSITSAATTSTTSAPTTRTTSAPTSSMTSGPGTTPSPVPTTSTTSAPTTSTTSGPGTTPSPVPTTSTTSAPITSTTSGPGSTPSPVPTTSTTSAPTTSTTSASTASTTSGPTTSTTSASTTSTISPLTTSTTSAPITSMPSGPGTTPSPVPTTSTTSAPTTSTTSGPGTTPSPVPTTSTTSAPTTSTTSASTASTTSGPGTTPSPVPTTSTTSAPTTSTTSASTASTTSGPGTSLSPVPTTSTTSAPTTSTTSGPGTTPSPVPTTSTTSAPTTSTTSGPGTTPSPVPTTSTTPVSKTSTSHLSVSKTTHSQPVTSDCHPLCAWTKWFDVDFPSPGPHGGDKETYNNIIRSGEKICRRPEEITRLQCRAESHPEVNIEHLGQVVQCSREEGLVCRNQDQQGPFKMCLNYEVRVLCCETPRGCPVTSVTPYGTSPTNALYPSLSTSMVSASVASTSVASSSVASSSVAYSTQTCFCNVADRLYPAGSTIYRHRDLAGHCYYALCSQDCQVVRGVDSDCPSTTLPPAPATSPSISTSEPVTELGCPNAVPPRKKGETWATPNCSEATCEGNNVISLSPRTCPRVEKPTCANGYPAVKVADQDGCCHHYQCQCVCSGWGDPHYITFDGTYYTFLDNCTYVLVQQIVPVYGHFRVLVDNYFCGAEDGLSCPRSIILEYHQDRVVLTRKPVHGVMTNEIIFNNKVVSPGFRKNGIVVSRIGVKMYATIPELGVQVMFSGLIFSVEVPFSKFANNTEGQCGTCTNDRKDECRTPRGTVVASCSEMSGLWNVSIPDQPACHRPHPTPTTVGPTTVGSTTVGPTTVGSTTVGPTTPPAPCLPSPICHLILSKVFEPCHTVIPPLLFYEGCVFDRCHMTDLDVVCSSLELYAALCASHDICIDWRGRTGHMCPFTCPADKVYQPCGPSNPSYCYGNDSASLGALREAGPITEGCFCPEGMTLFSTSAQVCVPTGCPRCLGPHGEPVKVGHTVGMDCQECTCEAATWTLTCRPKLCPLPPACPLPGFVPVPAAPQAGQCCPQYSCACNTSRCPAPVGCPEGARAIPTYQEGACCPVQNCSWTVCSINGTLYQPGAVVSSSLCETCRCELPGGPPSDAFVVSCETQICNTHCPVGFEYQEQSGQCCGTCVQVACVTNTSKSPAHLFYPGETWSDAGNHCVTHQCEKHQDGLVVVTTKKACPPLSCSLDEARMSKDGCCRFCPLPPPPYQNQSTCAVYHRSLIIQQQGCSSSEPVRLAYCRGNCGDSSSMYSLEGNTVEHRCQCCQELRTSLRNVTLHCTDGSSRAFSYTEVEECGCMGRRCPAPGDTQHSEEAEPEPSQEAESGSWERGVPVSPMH

[6] = molecular target: MUC5AC (NPC-1 antigen) expressed by Colo-205 human colorectal tumor cells (human) (UniProt P98088); test: FACS, 2 µg/ml isotype control antibody-FITC on Colo-205 cells
[7] = molecular target: MUC5AC (NPC-1 antigen) expressed by CFPAC-1 human pancreatic tumor cells (human) (UniProt P98088); test: FACS, 2 µg/ml isotype control antibody-FITC on CFPAC cells
[8] = molecular target: MUC5AC (NPC-1 antigen) expressed by LS174T human colorectal tumor cells (human) (UniProt P98088); test: flow cytometry on LS174T cells

Question: With Isotype control antibody as the substance, how does the Percent positive [1] read?
Answer: The Percent positive was 3.38%.

Question: What about the mfi [2] of the same substance?
Answer: Its mfi is 25 mfi.

Question: And the mfi [3]?
Answer: The mfi was 56 mfi.

Question: What about the Percent positive [4] of the same substance?
Answer: Its Percent positive is 3.85%.

Question: What about the mfi [5] of the same substance?
Answer: The mfi was 34 mfi.

Question: And the Percent positive [6]?
Answer: Its Percent positive is 2.33%.

Question: And the Percent positive [7]?
Answer: The Percent positive was 1.79%.

Question: And the mfi [8]?
Answer: The mfi was 35 mfi.
